The text below walks through data of the supplement of paper PMC11865577.

What all share (assay): pull-down binding Z-score (relative to library population); higher = stronger binding
One data set has as its system TO-N3 (biotin conjugate). The following applies: RNA library: Library-2. In a few lines:
(§1)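 Streptavidin beads with 100 pmol of biotin-conjugated small molecule were incubated for 60 min at 25 °C with 1 μg of heat-folded Cy5- or Cy3-end-labelled RNA library in phosphate/NaCl/KCl buffer. Bound RNA was eluted in hot SDS after three washes and hybridised to a DNA barcode microarray at 55.5 °C for 20 h. Each binding score is a library-referenced Z-score, computed after beads-only subtraction and a trimmed mean of barcoded replicate probes.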

Data set [1] has as its system TO-N3-2 (biotin conjugate). The following applies: RNA library: Library-2. In a few lines:
as §1

Data set [2] deals with G-clamp-N3 (biotin conjugate). The following applies: RNA library: Library-1 (pre-miRNA loops + repeats). In a few lines: as §1
Data set [3] concerns TO-3-N3-2 (biotin conjugate). The conditions noted are these: RNA library: Library-2. Summed up:
as §1

Data set [4] relates to TO-3-N3 (biotin conjugate). The following applies: RNA library: Library-2. In a few lines:
as §1

In the case of “UUGUGAUGUUUACCGUUUAAAUCCACGG [hsa-mir-125b-1]”, the “pull-down binding Z-score” value in the data set with TO-N3 (biotin conjugate) is 0.107; in data set [1], 0.078; in data set [2], -0.878; in data set [3], -0.313; in data set [4] it was 0.0416.
On to CUGUUGUGCCUAAUUCAGAG [hsa-mir-296], for which the “pull-down binding Z-score” value was 0.0489 with TO-N3 (biotin conjugate); 0.492 in data set [1]; -0.279 in data set [2]; 0.0218 in data set [3]; -0.165 in data set [4].
AGGUAGUGUUUAGUUAUCUACU [hsa-mir-20a]: the “pull-down binding Z-score” value in the data set with TO-N3 (biotin conjugate) was -0.285; in data set [1], -0.218; in data set [2], 1.28; in data set [3], 0.257; in data set [4], -0.264.
Regarding GAGUUUGGGCAGCUCAGGCAAACC [hsa-mir-181c], the “pull-down binding Z-score” value is 0.492 in the data set with TO-N3 (biotin conjugate); 1.12 in data set [1]; 0.335 in data set [2]; 0.132 in data set [3]; -0.201 in data set [4].
Take CCGACUCUGAGUAUGAUAGAAGUC [hsa-mir-148a]: the “pull-down binding Z-score” value in the data set on TO-N3 (biotin conjugate) is 1.48; in data set [1] it was 2.33; in data set [2], -1.56; in data set [3] it was 0.613; in data set [4] it was 0.905.
On to UGCCAUUACUCUCAGUGGCA [hsa-mir-548y], for which the “pull-down binding Z-score” value was -1.16 in the data set on TO-N3 (biotin conjugate); -1.01 in data set [1]; -0.0483 in data set [2]; -0.564 in data set [3]; -0.836 in data set [4].
On to UGGAGUUUUUUUUUCCUCCUG [hsa-mir-4329], for which the “pull-down binding Z-score” value is 0.219 with TO-N3 (biotin conjugate); 0.0619 in data set [1]; -0.689 in data set [2]; 0.465 in data set [3]; 0.315 in data set [4].
Consider “UGGGUUUGAGUCUGAAUCAACUCA [hsa-mir-181b-2]”, for which the “pull-down binding Z-score” value with TO-N3 (biotin conjugate) is -0.805; in data set [1], -0.572; in data set [2], -0.649; in data set [3], -0.254; in data set [4], -0.728.
“UCCCAGGCCCUUCCUCCAAUACUGGGA [hsa-mir-4666b]”: the “pull-down binding Z-score” value was -0.383 with TO-N3 (biotin conjugate); -0.446 in data set [1]; -0.809 in data set [2]; -0.0987 in data set [3]; -0.252 in data set [4].
The corresponding values for UUGGUCUUUCCCCUGUGGUCCCAA [hsa-mir-2909] are -0.276, 0.207, -0.499, 0.152 and -0.158.
Regarding “CGGACACCCGGCCUCCACUUUCUGUGGCAGGUACCUCCUCCA [hsa-mir-4505]”, the “pull-down binding Z-score” value with TO-N3 (biotin conjugate) was found to be 1.05; in data set [1] it was 1.47; in data set [2], 0.149; in data set [3], 0.209; in data set [4] it was 0.675.
For “CUCGGGUGGAUAAGUCUGAUCUGAG [hsa-mir-3663]”, the “pull-down binding Z-score” value was -0.554 in the data set with TO-N3 (biotin conjugate); 0.26 in data set [1]; 1.2 in data set [2]; -0.631 in data set [3]; -0.724 in data set [4].
The corresponding values for GUCACUGUCUCAAAUCAGUGAC [hsa-mir-549a] are -0.129, -1.33, -0.711, -0.427 and 0.183.
For “ACUUUCUGUUUGAAAGAAAACAAAGU [hsa-mir-519e]”, the “pull-down binding Z-score” value is -0.981 with TO-N3 (biotin conjugate); -0.767 in data set [1]; -0.167 in data set [2]; -0.409 in data set [3]; -0.798 in data set [4].
Regarding “GCUGAACCCCUGCCCCUGGAGCCCCCAGCAGGGCCCUC [hsa-mir-7162]”, the “pull-down binding Z-score” value in the data set with TO-N3 (biotin conjugate) was 1.34; in data set [1], 1.85; in data set [2], -1.32; in data set [3], 0.612; in data set [4], 0.665.
GCUCUGGGGAUUUGGUCUCACAGC [hsa-mir-3940]: the “pull-down binding Z-score” value with TO-N3 (biotin conjugate) was -0.497; in data set [1], -0.339; in data set [2], 0.507; in data set [3], -0.38; in data set [4], -0.54.
As to UCUUUCAUUUUGGAUUUGACU [hsa-mir-766], the “pull-down binding Z-score” value in the data set with TO-N3 (biotin conjugate) was -0.0798; in data set [1], -0.612; in data set [2], -0.725; in data set [3], -0.03; in data set [4] it was 0.116.
Turning to “GGCUGGGGUCACUGACUCUGCUUCCCCUGCC [hsa-mir-6799]”, the “pull-down binding Z-score” value in the data set on TO-N3 (biotin conjugate) was -0.0831; in data set [1], 0.62; in data set [2], -0.448; in data set [3], -0.0439; in data set [4] it was -0.14.
The like results for “GUGUUUUCUCCUUUAGAGAGAGCUG [hsa-mir-4299]” were, in that order, -0.257, 0.309, 0.765, -0.23 and -0.542.
For the sequence “AAAUUGCAGACACUAGGACCAUGUCUUGGUUUUUGCAAUAAUG [hsa-mir-1248]”, the “pull-down binding Z-score” value with TO-N3 (biotin conjugate) was -0.189; in data set [1] it was -0.641; in data set [2], 0.0385; in data set [3] it was -0.133; in data set [4], -0.228.
As to “UUUGCCGUCGAAAAUAAUGGCAAA [hsa-mir-548am]”, the “pull-down binding Z-score” value with TO-N3 (biotin conjugate) is -0.71; in data set [1], -0.502; in data set [2], -0.204; in data set [3], -0.146; in data set [4] it was -0.422.
As to “AUGGUUUAGAGUUACACCCUGGGAGUUAACUGU [hsa-let-7c]”, the “pull-down binding Z-score” value with TO-N3 (biotin conjugate) is 0.437; in data set [1], 0.0342; in data set [2], -0.228; in data set [3], 0.565; in data set [4] it was 0.351.
For “AAAUAAGAGGCUAGGAUUGCCUCUUAUUU [hsa-mir-3201]”, the “pull-down binding Z-score” value with TO-N3 (biotin conjugate) was -1.18; in data set [1], -1.57; in data set [2], 0.838; in data set [3] it was -0.362; in data set [4], -0.688.
As for UGCCCUGGGGCCGUCCCUGCGCA [hsa-mir-1909], the “pull-down binding Z-score” value in the data set with TO-N3 (biotin conjugate) was 0.883; in data set [1] it was 1.63; in data set [2] it was -1.26; in data set [3], 0.143; in data set [4], 0.425.
For the sequence “AUGGUCUCUAUAUUUAUGAUGAUUAA [hsa-mir-889]”, the “pull-down binding Z-score” value in the data set on TO-N3 (biotin conjugate) is 0.577; in data set [1], 0.0111; in data set [2], -0.798; in data set [3], 0.373; in data set [4], 0.533.
Take “UGGAGGGGGUUUGUUUGCUUAUUCCCCUCU [hsa-mir-6737]”: the “pull-down binding Z-score” value in the data set on TO-N3 (biotin conjugate) worked out at 0.918; in data set [1] it was 0.633; in data set [2] it was 0.456; in data set [3] it was 0.705; in data set [4] it was 0.936.
“UUUUGCAGUUUUUUUAAGUAAUUGCAAAA [hsa-mir-548f-3]”: the “pull-down binding Z-score” value in the data set with TO-N3 (biotin conjugate) is -0.812; in data set [1], -0.904; in data set [2] it was 0.0351; in data set [3], -0.385; in data set [4] it was -0.492.
As to “GAGAAACUUGAGGUCUCUGGGAGUUGCUUAAACCAGUUGACCGUAACCUGGCCAGAGAAUUCUGAUAGUGUC [hsa-mir-6740]”, the “pull-down binding Z-score” value in the data set with TO-N3 (biotin conjugate) is 0.571; in data set [1] it was 1.32; in data set [2], 1.09; in data set [3], -0.00402; in data set [4] it was -0.13.
The corresponding values for “GACUGGACAACAUGAUGAGCCCAAACCAAUC [hsa-mir-5092]” are 0.0433, 0.433, -1.85, 0.166 and -0.245.
